Residue numbers refer to the chain shown, from its start.
What was measured:
[1] = target: T1, cynomolgus monkey LAMP1 at the cell surface (cynomolgus monkey, UniProt P11279 29-417 (human entry)); assay: flow cytometry, HCT116 stable clones; cynomolgus LAMP1 on recombinant HCT116 stable clones
T1 construct: also called cynoLAMP1; cynomolgus LAMP1
T1 chain: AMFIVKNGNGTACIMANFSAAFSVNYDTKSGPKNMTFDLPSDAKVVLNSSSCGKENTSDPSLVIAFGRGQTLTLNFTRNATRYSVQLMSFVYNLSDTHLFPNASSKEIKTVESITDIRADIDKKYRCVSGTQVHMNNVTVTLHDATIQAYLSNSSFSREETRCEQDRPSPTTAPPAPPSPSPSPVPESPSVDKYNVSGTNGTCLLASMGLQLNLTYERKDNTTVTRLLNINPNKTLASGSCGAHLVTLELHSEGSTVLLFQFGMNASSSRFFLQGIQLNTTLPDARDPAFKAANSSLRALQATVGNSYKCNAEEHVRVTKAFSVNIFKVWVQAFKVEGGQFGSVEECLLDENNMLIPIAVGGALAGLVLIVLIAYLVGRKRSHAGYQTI
Protocol: HCT116 cells were infected by a lentiviral vector allowing stable integration of the human or the cynomolgus LAMP1 CDS in genomic DNA of cells. Individual clones with different densities of human or cynomolgus LAMP1 cell surface localization were derived from a pool of HCT116 infected cells. […] 100 μL/well of goat anti-human IgG conjugated with Alexa488 (Invitrogen; # A11013) was added for 1 h at 4° C. and washed two times with PBS 1% BSA. The antibody binding was evaluated after centrifugation and resuspension of cells in 100 μl fixing solution (paraformaldehyde at 4% in PBS). Samples were read using Galaxy® Flow Cytometry System (Partec). EC50 values were estimated using BIOST@T-SPEED software.

[2] = target: T2, LAMP1_hL1_mL2_hL34_ΔGYQTI (human; mouse, UniProt P11279 29-412); assay: flow cytometry, transfected 293-F cells
T2 construct: on cells; also called pXL5997
T2 chain: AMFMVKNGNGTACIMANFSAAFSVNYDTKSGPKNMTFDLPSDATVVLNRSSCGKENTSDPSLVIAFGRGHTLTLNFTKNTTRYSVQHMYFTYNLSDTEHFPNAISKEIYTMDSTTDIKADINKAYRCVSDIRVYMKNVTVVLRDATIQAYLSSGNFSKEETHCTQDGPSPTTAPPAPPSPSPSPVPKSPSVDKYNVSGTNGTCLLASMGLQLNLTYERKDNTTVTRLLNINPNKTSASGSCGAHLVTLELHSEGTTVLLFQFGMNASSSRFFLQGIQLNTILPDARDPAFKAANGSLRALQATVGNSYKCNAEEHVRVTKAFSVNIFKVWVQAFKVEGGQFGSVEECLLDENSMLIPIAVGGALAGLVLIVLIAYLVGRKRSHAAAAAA

[3] = target: T3, LAMP1_mseq6_ΔGYQTI (human; mouse, UniProt P11279 29-412); assay: flow cytometry, transfected 293-F cells
T3 construct: on cells; also called pXL5990
T3 chain: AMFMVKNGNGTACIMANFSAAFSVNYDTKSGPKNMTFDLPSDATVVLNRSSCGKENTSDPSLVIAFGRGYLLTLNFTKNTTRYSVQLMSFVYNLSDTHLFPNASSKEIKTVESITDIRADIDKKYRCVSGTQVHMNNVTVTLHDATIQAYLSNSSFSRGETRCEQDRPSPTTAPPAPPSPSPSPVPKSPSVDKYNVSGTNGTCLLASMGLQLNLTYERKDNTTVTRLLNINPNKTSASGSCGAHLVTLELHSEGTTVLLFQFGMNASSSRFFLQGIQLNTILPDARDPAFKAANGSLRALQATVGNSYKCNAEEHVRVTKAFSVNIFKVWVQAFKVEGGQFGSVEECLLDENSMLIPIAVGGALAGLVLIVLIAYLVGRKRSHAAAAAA

[4] = target: T4, LAMP1_mseq11_ΔGYQTI (human; mouse, UniProt P11279 29-412); assay: flow cytometry, transfected 293-F cells
T4 construct: on cells; also called pXL5995
T4 chain: T3 chain with Y70H, L71T, K78R, T80A, N153S, S154G, S155N, R158K, G159E

[5] = target: T5, human LAMP1 at the cell surface (human, UniProt P11279 29-417); assay: flow cytometry, HCT116 stable clone
T5 construct: native on tumour cells (PDX, Colo205, SW480, LS174T) or from the cloned CDS NM_005561.3 in HEK293 and HCT116; signal peptide 1-28 left out; also called huLAMP1; full length human LAMP1
T5 sequence: T3 chain with Y70H, L71T, K78R, T80A, A385G, A386Y, A387Q, A388T, A389I
Text: HCT116 stable clone was obtained as described above. HEK293 cells were infected by a lentiviral vector allowing stable integration of the human or the cynomolgus LAMP1 CDS in genomic DNA of cells. Individual clones with different densities of cynomolgus LAMP1 cell surface localization were derived from a pool of HEK293 infected cells. Protocol as described in example above. EC₅₀ values were estimated using BIOST@T-SPEED software.

B1: MAb1 (antibody, mouse IgG2a, kappa)
heavy: QVQLQQSGAELVKPGASVKMSCKASGYIFTNYNIHWVKKSPGQGLEWIGAIYPGNGDAPYSQKFKDKATLTADKSSSTTYMQLSRLTSEDSAVYYCVRANWDVAFAYWGQGTLVSVSAAKTTAPSVYPLAPVCGDTTGSSVTLGCLVKGYFPEPVTLTWNSGSLSSGVHTFPAVLQSDLYTLSSSVTVTSSTWPSQSITCNVAHPASSTKVDKKIEPRGPTIKPCPPCKCPAPNLLGGPSVFIFPPKIKDVLMISLSPIVTCVVVDVSEDDPDVQISWFVNNVEVHTAQTQTHREDYNSTLRVVSALPIQHQDWMSGKEFKCKVNNKDLPAPIERTISKPKGSVRAPQVYVLPPPEEEMTKKQVTLTCMVTDFMPEDIYVEWTNNGKTELNYKNTEPVLDSDGSYFMYSKLRVEKKNWVERNSYSCSVVHEGLHNHHTTKSFSRTPGK
light: DIQMTQSPPSLSASLGGKVTITCKASQDIDRYMAWYQDKPGKGPRLLIHDTSTLQPGIPSRFSGSGSGRDYSFSISNLEPEDIATYYCLQYDNLWTFGGGTKLEIKRADAAPTVSIFPPSSEQLTSGGASVVCFLNNFYPKDINVKWKIDGSERQNGVLNSWTDQDSKDSTYSMSSTLTLTKDEYERHNSYTCEATHKTSTSPIVKSFNRNEC
notes: murine monoclonal IgG, kappa, from hybridoma; also called murine MAb1
[1]
  EC50: 5.5 nM

B2: huMAb1_1 (antibody, human IgG1, kappa)
heavy: not shown
light: DIQMTQSPSSLSASVGDRVTITCKASQDIDRYMAWYQDKPGKAPRLLIHDTSTLQSGVPSRFSGSGSGRDYTLTISNLEPEDFATYYCLQYDNLWTFGGGTKVEIKRTVAAPSVFIFPPSDEQLKSGTASVVCLLNNFYPREAKVQWKVDNALQSGNSQESVTEQDSKDSTYSLSSTLTLSKADYEKHKVYACEVTHQGLSSPVTKSFNRGEC
notes: humanized, VH1-huIgG1 and VL1-huCk
[2]
  binding result: no binding
[3]
  binding result: no binding
[4]
  binding result: no binding

B3: MAb3 (antibody, V domains shown)
VH: QIQLVQSGPELKKPGETVKISCKASGYIFTNYGMNWVKQAPGKGLKWMGWINTYTGESRYADDFKGRFALSLETSASTAYLQINNLENEDMATYFCAREDYYGNSPWFFDVWGAGTTVTVSS
VL: DIQMTQTTSSLSASLGDRVTISCNASQGINKYLNWYQQKPDGTVKLLIYYTSTLHSGVPSRFSGSGSGTDYSLTINNLEPEDIATYYCQQYTKLPFTFGSGTKLEIK
notes: murine monoclonal IgG, kappa, from hybridoma; also called murine MAb3
[5]
  EC50: 7.6 nM
